For assay [1], the target named is H/K/N RAS wt(55-64) peptide … with HLA-A1 and b2M on peptide-pulsed SigM5 cells (human). Nature of the assay: flow cytometry, phage-displayed scFv on peptide-pulsed SigM5 cells (FIG. 14). For orientation: A flow cytometer gives signals particle by particle.
Description: (§1) Cells were stained with 10 μL of precipitated phage per 100 μL of cells, washed and stained with rabbit anti-M13 antibody, then washed and stained with anti-Rabbit-PE antibody. Cells were stained with a live/dead Near-IR dye, washed, and analyzed by an LSRII flow cytometer.
(§2) The pulsed cells were pelleted, washed once in cold stain buffer (PBS containing 0.5% BSA, 2 mM EDTA, and 0.1% sodium azide), and resuspended in 100 μL of stain buffer. Phage staining was performed on ice with 10 uL (approximately 1×10⁹) phage for 1 hour in 100 uL total volume, followed by one 4 mL wash in cold stain buffer. Cells were then stained with 1 uL of rabbit anti-M13 antibody (Pierce, Rockford, Ill.) in 100 uL total volume on ice for 1 hour and washed once with 4 mL of cold stain buffer. Cells were stained with anti-rabbit-PE (Biolegend) on ice for 1 hour in 100 uL total volume, followed by incubation with LIVE/DEAD Fixable Near-IR Dead Cell Stain (Thermo Fisher) for 10 min at room temperature per manufacturer's instructions. Cells were washed once in 4 mL of stain buffer followed by resuspension in 300 uL of stain buffer before analysis. Stained cells were analyzed using an LSRII flow cytometer (Becton Dickinson, Mansfield, Mass.).
Assay [2] has as its target KRAS wt(8-16) peptide … with HLA-A11 and b2M on peptide-pulsed MINO cells (human). Kind of assay: flow cytometry, phage-displayed scFv on peptide-pulsed MINO cells (FIG. 10).
Description: as §1, §2

The text below walks through data of patent US20200079854A1 (Johns Hopkins, published 2020).

B1: H/K/N RAS Q61H_A1_c10 (scFv)
scFv: DIQMTQSPSSLSASVGDRVTITCRASQDVNTAVAWYQQKPGKAPKLLIYSASFLYSGVPSRFSGSRSGTDFTLTISSLQPEDFATYYCQQGYFYYPNTFGQGTKVEIKRTGGGSGGGGSGGGASEVQLVESGGGLVQPGGSLRLSCAASGFNIGYYGMHWVRQAPGKGLEWVATVYPGGGYTSYADSVKGRFTISADTSKNTAYLQMNSLRAEDTAVYYCSRYYYYGFDYWGQGTLVTVSS
As for B1, in assay [1], the binding result was “no binding”.

B2: KRAS_G12D_A11_c14 (scFv)
scFv: DIQMTQSPSSLSASVGDRVTITCRASQDVNTAVAWYQQKPGKAPKLLIYSASFLYSGVPSRFSGSRSGTDFTLTISSLQPEDFATYYCQQYSFYPFTFGQGTKVEIKRTGGGSGGGGSGGGASEVQLVESGGGLVQPGGSLRLSCAASGFNFGSYIHWVRQAPGKGLEWVAIISGYSGNTYYADSVKGRFTISADTSKNTAYLQMNSLRAEDTAVYYCSRSNQSAYSYMDYWGQGTLVTVSS
For the molecule B2, in assay [2], the binding result is “no binding”.

B3: KRAS_G12D_A11_c114 (scFv)
scFv: DIQMTQSPSSLSASVGDRVTITCRASQDVNTAVAWYQQKPGKAPKLLIYSASFLYSGVPSRFSGSRSGTDFTLTISSLQPEDFATYYCQQYAYYPVTFGQGTKVEIKRTGGGSGGGGSGGGASEVQLVESGGGLVQPGGSLRLSCAASGFNLSGYYMHWVRQAPGKGLEWVAWFSPYSGYTYYADSVKGRFTISADTSKNTAYLQMNSLRAEDTAVYYCSRTHSSIYHSFDYWGQGTLVTVSS
For the molecule B3, the binding result in assay [2] was “no binding”.

B4: KRAS_G12D_A11_c117 (scFv)
scFv: DIQMTQSPSSLSASVGDRVTITCRASQDVNTAVAWYQQKPGKAPKLLIYSASFLYSGVPSRFSGSRSGTDFTLTISSLQPEDFATYYCQQYDYRPVTFGQGTKVEIKRTGGGSGGGGSGGGASEVQLVESGGGLVQPGGSLRLSCAASGFNVSTSGMHWVRQAPGKGLEWVAFIYGAYSGTYYADSVKGRFTISADTSKNTAYLQMNSLRAEDTAVYYCSRSQSYTYWSAMDYWGQGTLVTVSS
On to B4, for which, in assay [2], the binding result is given as “no binding”.

B5: KRAS_G12D_A11_c118 (scFv)
scFv: DIQMTQSPSSLSASVGDRVTITCRASQDVNTAVAWYQQKPGKAPKLLIYSASFLYSGVPSRFSGSRSGTDFTLTISSLQPEDFATYYCQQYDFTPMTFGQGTKVEIKRTGGGSGGGGSGGGASEVQLVESGGGLVQPGGSLRLSCAASGFNISYAKMHWVRQAPGKGLEWVAYLTYWGGYTNYADSVKGRFTISADTSKNTAYLQMNSLRAEDTAVYYCSRGEYGTYMDYWGQGTLVTVSS
For the molecule B5, the binding result in assay [2] is “no binding”.

B6: KRAS_G12D_A11_c16 (scFv)
scFv: DIQMTQSPSSLSASVGDRVTITCRASQDVNTAVAWYQQKPGKAPKLLIYSASFLYSGVPSRFSGSRSGTDFTLTISSLQPEDFATYYCQQYSYSPITFGQGTKVEIKRTGGGSGGGGSGGGASEVQLVESGGGLVQPGGSLRLSCAASGFNISDSYMHWVRQAPGKGLEWVATFSPYSSNTWYADSVKGRFTISADTSKNTAYLQMNSLRAEDTAVYYCSRSQFTFYQYFDYWGQGTLVTVSS
As for B6, the binding result in assay [2] is “no binding”.

B7: H/R/N RAS Q61R_A1_c117 (scFv)
scFv: DIQMTQSPSSLSASVGDRVTITCRASQDVNTAVAWYQQKPGKAPKLLIYSASFLYSGVPSRFSGSRSGTDFTLTISSLQPEDFATYYCQQSVYDPITFGQGTKVEIKRTGGGSGGGGSGGGASEVQLVESGGGLVQPGGSLRLSCAASGFNISGSWIHWVRQAPGKGLEWVAWLYPDSDYTYYADSVKGRFTISADTSKNTAYLQMNSLRAEDTAVYYCSRAHTYAFDYWGQGTLVTVSS
With B7, the binding result in assay [1] is recorded as “no binding”.

B8: KRAS_G12D_A11_c17 (scFv)
scFv: DIQMTQSPSSLSASVGDRVTITCRASQDVNTAVAWYQQKPGKAPKLLIYSAYFLYSGVPSRFSGSRSGTDFTLTISSLQPEDFATYYCQQYSAYYQPITFGQGTKVEIKRTGGGSGGGGSGGGASEVQLVESGGGLVQPGGSLRLSCAASGFNIFSDQMHWVRQAPGKGLEWVAGFMPYDSYYTNYADSVKGRFTISADTSKNTAYLQMNSLRAEDTAVYYCSRMSVRNAFDYWGQGTLVTVSS
In the case of B8, the binding result in assay [2] is recorded as “no binding”.

B9: H/R/N RAS Q61R_A1_c116 (scFv)
scFv: DIQMTQSPSSLSASVGDRVTITCRASQDVNTAVAWYQQKPGKAPKLLIYSASFLYSGVPSRFSGSRSGTDFTLTISSLQPEDFATYYCQQAHMIPITFGQGTKVEIKRTGGGSGGGGSGGGASEVQLVESGGGLVQPGGSLRLSCAASGFNFSFPGMHWVRQAPGKGLEWVAWFVGYDGYTYYADSVKGRFTISADTSKNTAYLQMNSLRAEDTAVYYCSRDYYSFSMDYWGQGTLVTVSS
B9: in assay [1], the binding result was “no binding”.

B10: KRAS_G12D_A11_c112 (scFv)
scFv: DIQMTQSPSSLSASVGDRVTITCRASQDVNTAVAWYQQKPGKAPKLLIYSASFLYSGVPSRFSGSRSGTDFTLTISSLQPEDFATYYCQQYSYMPITFGQGTKVEIKRTGGGSGGGGSGGGASEVQLVESGGGLVQPGGSLRLSCAASGFNISYQHIHWVRQAPGKGLEWVAVFMPYQGSTYYADSVKGRFTISADTSKNTAYLQMNSLRAEDTAVYYCSRANIYSSHSFFDYWGQGTLVTVSS
For the molecule B10, the binding result in assay [2] was “no binding”.

B11: H/K/N RAS Q61K_A1_c18 (scFv)
scFv: DIQMTQSPSSLSASVGDRVTITCRASQDVNTAVAWYQQKPGKAPKLLIYSASFLYSGVPSRFSGSRSGTDFTLTISSLQPEDFATYYCQQYAYAPFTFGQGTKVEIKRTGGGSGGGGSGGGASEVQLVESGGGLVQPGGSLRLSCAASGFNVSYSMIHWVRQAPGKGLEWVARVWGDGGVTYYADSVKGRFTISADTSKNTAYLQMNSLRAEDTAVYYCSRGSYYAFDYWGQGTLVTVSS
On to B11, for which the binding result in assay [1] is reported as “no binding”.

B12: H/K/N RAS Q61K_A1_c16 (scFv)
scFv: DIQMTQSPSSLSASVGDRVTITCRASQDVNTAVAWYQQKPGKAPKLLIYSASFLYSGVPSRFSGSRSGTDFTLTISSLQPEDFATYYCQQHYYSPVTFGQGTKVEIKRTGGGSGGGGSGGGASEVQLVESGGGLVQPGGSLRLSCAASGFNIFYQDMHWVRQAPGKGLEWVAMIYPDYDYTYYADSVKGRFTISADTSKNTAYLQMNSLRAEDTAVYYCSRTYSVYMDYWGQGTLVTVSS
As to B12, in assay [1], the binding result was “no binding”.

B13: KRAS_G12D_A11_c115 (scFv)
scFv: DIQMTQSPSSLSASVGDRVTITCRASQDVNTAVAWYQQKPGKAPKLLIYSASFLYSGVPSRFSGSRSGTDFTLTISSLQPEDFATYYCQQYSYMPITFGQGTKVEIKRTGGGSGGGGSGGGASEVQLVESGGGLVQPGGSLRLSCAASGFNVSGQYMHWVRQAPGKGLEWVAVISPVSGNTYYADSVKGRFTISADTSKNTAYLQMNSLRAEDTAVYYCSRPMKTSYYGAFDYWGQGTLVTVSS
For B13, the binding result in assay [2] is “no binding”.

B14: H/R/N RAS Q61R_A1_c119 (scFv)
scFv: DIQMTQSPSSLSASVGDRVTITCRASQDVNTAVAWYQQKPGKAPKLLIYSASFLYSGVPSRFSGSRSGTDFTLTISSLQPEDFATYYCQQGQYSPFTFGQGTKVEIKRTGGGSGGGGSGGGASEVQLVESGGGLVQPGGSLRLSCAASGFNVSYEYMHWVRQAPGKGLEWVAEIYGGSDNTYYADSVKGRFTISADTSKNTAYLQMNSLRAEDTAVYYCSRPLGSYFDYWGQGTLVTVSS
With B14, in assay [1], the binding result is listed as “no binding”.

B15: H/R/N RAS Q61R_A1_c118 (scFv)
scFv: DIQMTQSPSSLSASVGDRVTITCRASQDVNTAVAWYQQKPGKAPKLLIYSASFLYSGVPSRFSGSRSGTDFTLTISSLQPEDFATYYCQQSYTSPLTFGQGTKVEIKRTGGGSGGGGSGGGASEVQLVESGGGLVQPGGSLRLSCAASGFNIYYGVMHWVRQAPGKGLEWVAMIYPDSSWTYYADSVKGRFTISADTSKNTAYLQMNSLRAEDTAVYYCSRDQDFHYMNYYLSYALDYWGQGTLVTVSS
With B15, the binding result in assay [1] was “no binding”.

B16: H/R/N RAS Q61R_A1_c122 (scFv)
scFv: DIQMTQSPSSLSASVGDRVTITCRASQDVNTAVAWYQQKPGKAPKLLIYSASFLYSGVPSRFSGSRSGTDFTLTISSLQPEDFATYYCQQYWYLPTTFGQGTKVEIKRTGGGSGGGGSGGGASEVQLVESGGGLVQPGGSLRLSCAASGFNISWYDIHWVRQAPGKGLEWVADIEPSVGYTYYADSVKGRFTISADTSKNTAYLQMNSLRAEDTAVYYCSRSYPYYYFDYWGQGTLVTVSS
In the case of B16, the binding result in assay [1] is listed as “no binding”.

B17: KRAS_G12D_A11_c119 (scFv)
scFv: DIQMTQSPSSLSASVGDRVTITCRASQDVNTAVAWYQQKPGKAPKLLIYSASFLYSGVPSRFSGSRSGTDFTLTISSLQPEDFATYYCQQYSSSSPVTFGQGTKVEIKRTGGGSGGGGSGGGASEVQLVESGGGLVQPGGSLRLSCAASGFNFSSYVMHWVRQAPGKGLEWVAVVYPDSGGTYYADSVKGRFTISADTSKNTAYLQMNSLRAEDTAVYYCSRTSSYYAFDYWGQGTLVTVSS
In the case of B17, the binding result in assay [2] was “no binding”.

B18: KRAS_G12D_A11_c19 (scFv)
scFv: DIQMTQSPSSLSASVGDRVTITCRASQDVNTAVAWYQQKPGKAPKLLIYSASFLYSGVPSRFSGSRSGTDFTLTISSLQPEDFATYYCQQYSYYPITFGQGTKVEIKRTGGGSGGGGSGGGASEVQLVESGGGLVQPGGSLRLSCAASGFNLSYSYMHWVRQAPGKGLEWVAVISGFSGNTYYADSVKGRFTISADTSKNTAYLQMNSLRAEDTAVYYCSRSDSYYTAMDYWGQGTLVTVSS
On to B18, for which the binding result in assay [2] is given as “no binding”.

B19: KRAS_G12D_A11_c110 (scFv)
scFv: DIQMTQSPSSLSASVGDRVTITCRASQDVNTAVAWYQQKPGKAPKLLIYSASFLYSGVPSRFSGSRSGTDFTLTISSLQPEDFATYYCQQYEYVPHTFGQGTKVEIKRTGGGSGGGGSGGGASEVQLVESGGGLVQPGGSLRLSCAASGFNISYGYMHWVRQAPGKGLEWVAKFHYGSGNTYYADSVKGRFTISADTSKNTAYLQMNSLRAEDTAVYYCSRSNYYYLDYWGQGTLVTVSS
Regarding B19, the binding result in assay [2] was “no binding”.
